From publication PMC4265154, “A reversible Renilla luciferase protein complementation assay for rapid identification of protein–protein interactions reveals the existence of an interaction network involved in xyloglucan biosynthesis in the plant Golgi apparatus” (Journal of Experimental Botany, 2014)
One block for each molecule: values may come before it.

B1: MURUS3/KATAMARI1 (MUR3) fused to hRluc fragment [F1] or [F2] (natural protein, Arabidopsis thaliana, UniProt Q7XJ98 1-619, looked up)
chain: MFPRVSMRRRSAEVSPTEPMEKGNGKNQTNRICLLVALSLFFWALLLYFHFVVLGTSNIDKQLQLQPSYAQSQPSSVSLRVDKFPIEPHAAPSKPPPKEPLVTIDKPILPPAPVANSSSTFKPPRIVESGKKQEFSFIRALKTVDNKSDPCGGKYIYVHNLPSKFNEDMLRDCKKLSLWTNMCKFTTNAGLGPPLENVEGVFSDEGWYATNQFAVDVIFSNRMKQYKCLTNDSSLAAAIFVPFYAGFDIARYLWGYNISRRDAASLELVDWLMKRPEWDIMRGKDHFLVAGRITWDFRRLSEEETDWGNKLLFLPAAKNMSMLVVESSPWNANDFGIPYPTYFHPAKDSEVFEWQDRMRNLERKWLFSFAGAPRPDNPKSIRGQIIDQCRNSNVGKLLECDFGESKCHAPSSIMQMFQSSLFCLQPQGDSYTRRSAFDSMLAGCIPVFFHPGSAYTQYTWHLPKNYTTYSVFIPEDDVRKRNISIEERLLQIPAKQVKIMRENVINLIPRLIYADPRSELETQKDAFDVSVQAVIDKVTRLRKNMIEGRTEYDYFVEENSWKYALLEEGQREAGGHVWDPFFSKPKPGEDGSSDGNGGTTISADAAKNSWKSEQRDKTQ
notes: Made in two forms, one with [F1]-HA and one with [F2]-FLAG; a chain carries one of the two; also called MUR3-[F1]; MUR3-[F2]; source: N. benthamiana leaves, transient expression (A. tumefaciens GV3101, with p19), in crude leaf macerate; not shown: hRluc[F1]; (Renilla luciferase residues 1-110) with HA, C-terminal, kept; hRluc[F2]; (Renilla luciferase residues 111-310) with FLAG, C-terminal, kept
B2: GALACTURONOSYLTRANSFERASE7 (GAUT7) fused to hRluc fragment [F1] or [F2] (natural protein, Arabidopsis thaliana, UniProt Q9ZVI7 1-619, looked up)
chain: MKGGGGGGGGGGGGKRRWKVLVIGVLVLVILSMLVPLAFLLGLHNGFHSPGFVTVQPASSFESFTRINATKHTQRDVSERVDEVLQKINPVLPKKSDINVGSRDVNATSGTDSKKRGLPVSPTVVANPSPANKTKSEASYTGVQRKIVSGDETWRTCEVKYGSYCLWREENKEPMKDAKVKQMKDQLFVARAYYPSIAKMPSQSKLTRDMKQNIQEFERILSESSQDADLPPQVDKKLQKMEAVIAKAKSFPVDCNNVDKKLRQILDLTEDEASFHMKQSVFLYQLAVQTMPKSLHCLSMRLTVEHFKSDSLEDPISEKFSDPSLLHFVIISDNILASSVVINSTVVHARDSKNFVFHVLTDEQNYFAMKQWFIRNPCKQSTVQVLNIEKLELDDSDMKLSLSAEFRVSFPSGDLLASQQNRTHYLSLFSQSHYLLPKLFDKLEKVVILDDDVVVQRDLSPLWDLDMEGKVNGAVKSCTVRLGQLRSLKRGNFDTNACLWMSGLNVVDLARWRALGVSETYQKYYKEMSSGDESSEAIALQASLLTFQDQVYALDDKWALSGLGYDYYINAQAIKNAAILHYNGNMKPWLELGIPNYKNYWRRHLSREDRFLSDCNVNP
notes: Made in two forms, one with [F1]-HA and one with [F2]-FLAG; a chain carries one of the two; also called GAUT7-[F1]; GAUT7-[F2]; source: N. benthamiana leaves, transient expression (A. tumefaciens GV3101, with p19), in crude leaf macerate; not shown: hRluc[F1]; (Renilla luciferase residues 1-110) with HA, C-terminal, kept; hRluc[F2]; (Renilla luciferase residues 111-310) with FLAG, C-terminal, kept
B3: GALACTURONOSYLTRANSFERASE1 (GAUT1) fused to hRluc fragment [F1] or [F2] (natural protein, Arabidopsis thaliana, UniProt Q9LE59 1-673, looked up)
chain: MALKRGLSGVNRIRGSGGGSRSVLVLLIFFCVFAPLCFFVGRGVYIDSSNDYSIVSVKQNLDWRERLAMQSVRSLFSKEILDVIATSTADLGPLSLDSFKKNNLSASWRGTGVDPSFRHSENPATPDVKSNNLNEKRDSISKDSIHQKVETPTKIHRRQLREKRREMRANELVQHNDDTILKLENAAIERSKSVDSAVLGKYSIWRRENENDNSDSNIRLMRDQVIMARVYSGIAKLKNKNDLLQELQARLKDSQRVLGEATSDADLPRSAHEKLRAMGQVLAKAKMQLYDCKLVTGKLRAMLQTADEQVRSLKKQSTFLAQLAAKTIPNPIHCLSMRLTIDYYLLSPEKRKFPRSENLENPNLYHYALFSDNVLAASVVVNSTIMNAKDPSKHVFHLVTDKLNFGAMNMWFLLNPPGKATIHVENVDEFKWLNSSYCPVLRQLESAAMREYYFKADHPTSGSSNLKYRNPKYLSMLNHLRFYLPEVYPKLNKILFLDDDIIVQKDLTPLWEVNLNGKVNGAVETCGESFHRFDKYLNFSNPHIARNFNPNACGWAYGMNMFDLKEWKKRDITGIYHKWQNMNENRTLWKLGTLPPGLITFYGLTHPLNKAWHVLGLGYNPSIDKKDIENAAVVHYNGNMKPWLELAMSKYRPYWTKYIKFDHPYLRRCNLHE
notes: Made in two forms, one with [F1]-HA and one with [F2]-FLAG; a chain carries one of the two; also called GAUT1-[F1]; GAUT1-[F2]; source: N. benthamiana leaves, transient expression (A. tumefaciens GV3101, with p19), in crude leaf macerate; not shown: hRluc[F1]; (Renilla luciferase residues 1-110) with HA, C-terminal, kept; hRluc[F2]; (Renilla luciferase residues 111-310) with FLAG, C-terminal, kept
B4: ARABINAN DEFICIENT1 (ARAD1) fused to hRluc fragment [F1] or [F2] (natural protein, Arabidopsis thaliana, UniProt Q6DBG8 1-447, looked up)
chain: MARKSSLLKRAAIAVVSVIAIYVILNASVSRSLPSSSDLPRQLIREDDDDEGRAPIQPRVRVYMYNLPKRFTYGLIEQHSIARGGIKKPVGDVTTLKYPGHQHMHEWYLFSDLNQPEVDRSGSPIVRVSDPADADLFYVPVFSSLSLIVNAGRPVEAGSGYSDEKMQEGLVEWLEGQEWWRRNAGRDHVIPAGDPNALYRILDRVKNAVLLVSDFGRLRPDQGSFVKDVVIPYSHRVNLFNGEIGVEDRNTLLFFMGNRYRKDGGKVRDLLFQVLEKEDDVTIKHGTQSRENRRAATKGMHTSKFCLNPAGDTPSACRLFDSIVSLCVPLIVSDSIELPFEDVIDYRKFSIFVEANAALQPGFLVQMLRKIKTKKILEYQREMKSVRRYFDYDNPNGAVKEIWRQVSHKLPLIKLMSNRDRRLVLRNLTEPNCSCLCTNQTGLITSI
notes: Made in two forms, one with [F1]-HA and one with [F2]-FLAG; a chain carries one of the two; also called ARAD1-[F1]; ARAD1-[F2]; source: N. benthamiana leaves, transient expression (A. tumefaciens GV3101, with p19), in crude leaf macerate; not shown: hRluc[F1]; (Renilla luciferase residues 1-110) with HA, C-terminal, kept; hRluc[F2]; (Renilla luciferase residues 111-310) with FLAG, C-terminal, kept

Tests used:
Experiment in all cases: split reporter (BiFC, NanoBiT); Rluc-PCA: proteins with C-terminal hRluc[F1]-HA and hRluc[F2]-FLAG co-expressed with p19 in N. benthamiana leaves for 72 h (Agrobacterium OD600 0.2 each, p19 0.05); pooled leaf discs macerated in 0.5 M NaCl, 0.1 M potassium phosphate pH 7.4, 1 mM EDTA, 0.02% BSA, protease inhibitors; 10 uM coelenterazine-h, luminescence 30 s; compared with p19 alone
[1] = target: FUCO…1 (FUT1) fused to hRluc fragment [F1] or [F2] (Arabidopsis thaliana) (UniProt Q9SWH5)
[2] = target: the molecule itself
[3] = target: B3; conditions: partners not purified
[4] = target: B2; conditions: partners not purified

Chain of FUCO…1 (FUT1) fused to hRluc fragment [F1] or [F2] (Arabidopsis thaliana) (Q9SWH5 whole entry, the tested form may be a part): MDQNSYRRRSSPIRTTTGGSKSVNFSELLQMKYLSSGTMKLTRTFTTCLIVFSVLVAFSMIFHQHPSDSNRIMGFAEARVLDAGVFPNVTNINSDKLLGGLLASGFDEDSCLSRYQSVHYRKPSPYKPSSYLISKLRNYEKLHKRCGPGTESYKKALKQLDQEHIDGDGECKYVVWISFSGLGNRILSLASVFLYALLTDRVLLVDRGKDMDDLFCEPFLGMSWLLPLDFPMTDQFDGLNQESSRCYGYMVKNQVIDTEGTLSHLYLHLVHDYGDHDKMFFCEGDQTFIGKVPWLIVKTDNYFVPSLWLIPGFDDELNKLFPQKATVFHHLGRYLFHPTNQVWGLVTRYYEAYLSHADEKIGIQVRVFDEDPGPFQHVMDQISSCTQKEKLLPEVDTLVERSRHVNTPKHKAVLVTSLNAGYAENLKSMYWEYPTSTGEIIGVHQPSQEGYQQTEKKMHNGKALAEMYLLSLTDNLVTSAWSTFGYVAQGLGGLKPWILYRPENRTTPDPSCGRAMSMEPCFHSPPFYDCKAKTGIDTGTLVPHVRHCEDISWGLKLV

Log10(RLU) [1]: 3.76 Log10(RLU)
Molecule: XXT5 fused to hRluc fragment [F1] or [F2] (from UniProt Q9CA75 1-457) (natural protein)

Molecule: B1
Log10(RLU) [2]: 4.75 Log10(RLU)

Molecule: B2
Log10(RLU) [3]: 4.71 Log10(RLU)

Molecule: B3
Log10(RLU) [4]: 4.71 Log10(RLU)

Molecule: B4
Log10(RLU) [2]: 4.75 Log10(RLU)
